Assay results as given in paper PMC8882189, “Identification of Nanog as a novel inhibitor of Rad51” (Cell Death & Disease, 2022).

Biological target: T1, His-tagged Rad51 (mouse, UniProt Q08297 1-339)
T1 construct: Rad51, mouse; The bacterial expression construct is not described; source: bacterially expressed, purified (Ni superflow beads)
T1 sequence (looked up): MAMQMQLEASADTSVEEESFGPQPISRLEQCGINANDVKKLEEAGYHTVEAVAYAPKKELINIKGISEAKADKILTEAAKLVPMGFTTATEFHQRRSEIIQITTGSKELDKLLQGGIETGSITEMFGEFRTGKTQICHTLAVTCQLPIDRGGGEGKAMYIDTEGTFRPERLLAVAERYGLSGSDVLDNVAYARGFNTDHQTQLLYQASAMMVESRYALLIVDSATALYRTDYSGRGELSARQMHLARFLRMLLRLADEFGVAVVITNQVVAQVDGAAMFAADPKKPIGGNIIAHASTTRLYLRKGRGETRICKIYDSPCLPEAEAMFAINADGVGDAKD
Test: pull-down; purified GST-tagged Nanog or fragments on glutathione-sepharose beads, incubated with purified His-tagged Rad51 at 4 °C overnight; washed 4 times with lysis buffer; western blot with anti-Rad51
Settings: both partners purified

binding result: binds
B1: GST-tagged Nanog (natural protein, mouse, UniProt Q80Z64 1-305, looked up)
chain: MSVGLPGPHSLPSSEEASNSGNASSMPAVFHPENYSCLQGSATEMLCTEAASPRPSSEDLPLQGSPDSSTSPKQKLSSPEADKGPEEEENKVLARKQKMRTVFSQAQLCALKDRFQKQKYLSLQQMQELSSILNLSYKQVKTWFQNQRMKCKRWQKNQWLKTSNGLIQKGSAPVEYPSIHCSYPQGYLVNASGSLSMWGSQTWTNPTWSSQTWTNPTWNNQTWTNPTWSSQAWTAQSWNGQPWNAAPLHNFGEDFLQPYVQLQQNFSASDLEVNLEATRESHAHFSTPQALELFLNYSVTPPGEI
notes: Nanog, mouse; The bacterial expression construct is not described; also called full-length Nanog; FL; source: E. coli BL21, purified (Glutathione-Sepharose)
